Usually stoichiometry N stands for the number of molecules, sites or subunits per partner or assembly.

We go through 20 substances from paper PMC10656227.

For test [1], the target named is collagen IV NC1 domains of the NC1 hexamer from African clawed frog kidney (African clawed frog (Xenopus laevis)). Briefly: SDS-PAGE (SDS resistance of the native hexamer); straight collagenase digest of tissue or animals; SDS-PAGE with 150 mM NaCl; sample at room temperature; Western blot with JK2. A general note: In western blotting, separated proteins are transferred to a membrane and probed.

Test [2] deals with collagen IV NC1 domains of the NC1 hexamer from California blackworms (California blackworm (Lumbriculus variegatus)). Put plainly: SDS-PAGE (SDS resistance of the native hexamer); straight collagenase digest of tissue or animals; regular SDS-PAGE without Cl^− supplement; sample at room temperature; Western blot with JK2.
The target is the same in test [3]. Briefly: SDS-PAGE (SDS resistance of the native hexamer); straight collagenase digest of tissue or animals; SDS-PAGE with 150 mM NaCl; sample at room temperature; Western blot with JK2.
The target of test [4] is collagen IV NC1 domains of the NC1 hexamer from axolotl kidney (axolotl (Ambystoma mexicanum)). Described as above.
In test [5] the target is collagen IV NC1 domains of the NC1 hexamer from banded killifish organs (banded killifish (Fundulus heteroclitus)). Briefly: SDS-PAGE (SDS resistance of the native hexamer); straight collagenase digest of tissue or animals; regular SDS-PAGE without Cl^− supplement; sample at room temperature; Western blot with JK2.
Test [6] has the same target. Put plainly: SDS-PAGE (SDS resistance of the native hexamer); straight collagenase digest of tissue or animals; SDS-PAGE with 150 mM NaCl; sample at room temperature; Western blot with JK2.
The target in test [7] is collagen IV NC1 domains of the NC1 hexamer from caiman liver (caiman (Caiman crocodilus)). The description is as above.
Test [8] deals with collagen IV NC1 domains of the NC1 hexamer from dogfish lens capsule, kidney and intestine (dogfish (Squalus acanthias)). Put plainly: SDS-PAGE (SDS resistance of the native hexamer); purified NC1 hexamer; Tris-glycine SDS-PAGE with 150 mM NaCl in running buffer and sample buffer; sample at room temperature, not boiled; Coomassie, TCE or Western blot.
The target is the same in test [9]. Briefly: SDS-PAGE (SDS resistance of the native hexamer); purified NC1 hexamer; regular SDS-PAGE without Cl^− supplement; sample at room temperature, not boiled; Coomassie, TCE or Western blot.
The target in test [10] is collagen IV NC1 domains of the NC1 hexamer from green iguana heart and kidney (green iguana (Iguana iguana)). Put plainly: SDS-PAGE (SDS resistance of the native hexamer); straight collagenase digest of tissue or animals; regular SDS-PAGE without Cl^− supplement; sample at room temperature; Western blot with JK2.
Test [11] shares this target. Briefly: SDS-PAGE (SDS resistance of the native hexamer); straight collagenase digest of tissue or animals; SDS-PAGE with 150 mM NaCl; sample at room temperature; Western blot with JK2.
The target of test [12] is collagen IV NC1 domains of the NC1 hexamer from human kidney (human (Homo sapiens)). Put plainly: SDS-PAGE (SDS resistance of the native hexamer); purified NC1 hexamer; Tris-glycine SDS-PAGE with 150 mM NaCl in running buffer and sample buffer; sample at room temperature, not boiled; Coomassie, TCE or Western blot.
Test [13] deals with collagen IV NC1 domains of the NC1 hexamer from leeches (leech (Hirudo medicinalis)). Briefly: SDS-PAGE (SDS resistance of the native hexamer); straight collagenase digest of tissue or animals; regular SDS-PAGE without Cl^− supplement; sample at room temperature; Western blot with JK2.
Test [14] shares this target. Put plainly: SDS-PAGE (SDS resistance of the native hexamer); straight collagenase digest of tissue or animals; SDS-PAGE with 150 mM NaCl; sample at room temperature; Western blot with JK2.
In test [15] the target is collagen IV NC1 domains of the NC1 hexamer from market squid lens capsules (market squid (Doryteuthis opalescens)). Put plainly: SDS-PAGE (SDS resistance of the native hexamer); partially purified NC1 hexamer (SEC hexamer fraction); SDS-PAGE with 150 mM NaCl; sample at room temperature; Western blot with JK2 or TCE in-gel visualization.
Test [16] concerns the target collagen IV NC1 domains of the NC1 hexamer from mussel (mussel (Mytilus edulis)). Put plainly: SDS-PAGE (SDS resistance of the native hexamer); straight collagenase digest of tissue or animals; regular SDS-PAGE without Cl^− supplement; sample at room temperature; Western blot with JK2.
Test [17] has the same target. Briefly: SDS-PAGE (SDS resistance of the native hexamer); straight collagenase digest of tissue or animals; SDS-PAGE with 150 mM NaCl; sample at room temperature; Western blot with JK2.
In test [18] the target is collagen IV NC1 domains of the NC1 hexamer from placenta basement membrane (bovine). Briefly: SDS-PAGE (SDS resistance of the native hexamer); purified NC1 hexamer; Tris-glycine SDS-PAGE with 150 mM NaCl in running buffer and sample buffer; sample at room temperature, not boiled; Coomassie, TCE or Western blot.
The target in test [19] is collagen IV NC1 domains of the NC1 hexamer from quick gloss snail (quick gloss snail (Zonitoides arboreus)). Briefly: SDS-PAGE (SDS resistance of the native hexamer); partially purified NC1 hexamer (SEC hexamer fraction); SDS-PAGE with 150 mM NaCl; sample at room temperature; Western blot with JK2 or TCE in-gel visualization.
Test [20] shares this target. Briefly: SDS-PAGE (SDS resistance of the native hexamer); partially purified NC1 hexamer (SEC hexamer fraction); regular SDS-PAGE without Cl^− supplement; sample at room temperature; Western blot with JK2 or TCE in-gel visualization.
The target in test [21] is collagen IV NC1 domains of the NC1 hexamer from rooster liver, kidney and chorioallantoic membrane (rooster (Gallus gallus domesticus)). Briefly: SDS-PAGE (SDS resistance of the native hexamer); purified NC1 hexamer; Tris-glycine SDS-PAGE with 150 mM NaCl in running buffer and sample buffer; sample at room temperature, not boiled; Coomassie, TCE or Western blot.
The target of test [22] is collagen IV NC1 domains of the NC1 hexamer from sea clam (sea clam (Spisula solidissima)). Put plainly: SDS-PAGE (SDS resistance of the native hexamer); straight collagenase digest of tissue or animals; regular SDS-PAGE without Cl^− supplement; sample at room temperature; Western blot with JK2.
The target is the same in test [23]. Put plainly: SDS-PAGE (SDS resistance of the native hexamer); straight collagenase digest of tissue or animals; SDS-PAGE with 150 mM NaCl; sample at room temperature; Western blot with JK2.
For test [24], the target named is collagen IV NC1 domains of the NC1 hexamer from sea squirt (sea squirt (Ciona intestinalis)). Put plainly: SDS-PAGE (SDS resistance of the native hexamer); collagenase digest, soluble fraction; Bis-Tris gel, Mops running buffer with 150 mM NaCl, sample buffer with 400 mM NaCl; sample at room temperature; Western blot with JK2.
Test [25] has as its target collagen IV NC1 domains of the NC1 hexamer from snapping turtle muscle (snapping turtle (Chelydra serpentina)). Put plainly: SDS-PAGE (SDS resistance of the native hexamer); straight collagenase digest of tissue or animals; SDS-PAGE with 150 mM NaCl; sample at room temperature; Western blot with JK2.
Test [26] has as its target collagen IV NC1 domains of the NC1 hexamer from starfish gonads (starfish (Asterias rubens)). The test is described as above.
Test [27] deals with collagen IV NC1 domains of the NC1 hexamer from zebrafish material (zebrafish (Danio rerio)). Put plainly: SDS-PAGE (SDS resistance of the native hexamer); partially purified NC1 hexamer (SEC hexamer fraction); SDS-PAGE with 150 mM NaCl; sample at room temperature; Western blot with JK2 or TCE in-gel visualization.
The target is the same in test [28]. Put plainly: SDS-PAGE (SDS resistance of the native hexamer); partially purified NC1 hexamer (SEC hexamer fraction); regular SDS-PAGE without Cl^− supplement; sample at room temperature; Western blot with JK2 or TCE in-gel visualization.
Test [29] deals with collagen IV NC1 domains of the α121 NC1 hexamer from lens capsule basement membrane (bovine). Put plainly: SDS-PAGE (SDS resistance of the native hexamer); purified NC1 hexamer; Tris-glycine SDS-PAGE with 150 mM NaCl in running buffer and sample buffer; sample at room temperature, not boiled; Coomassie, TCE or Western blot.

For “collagen IV NC1 domains of the NC1 hexamer from African clawed frog kidney (domain or fragment)”, the stoichiometry N in test [1] stood at 6.

“collagen IV NC1 domains of the NC1 hexamer from California blackworms (domain or fragment)”: the stoichiometry N in [2] and in test [3] was 6 in each case.

In the case of “collagen IV NC1 domains of the NC1 hexamer from axolotl kidney (domain or fragment)”, the stoichiometry N in test [4] turned out to be 6.

“collagen IV NC1 domains of the NC1 hexamer from banded killifish organs (domain or fragment)”: the stoichiometry N in test [5] and in [6] was 6 each time.

On to “collagen IV NC1 domains of the NC1 hexamer from caiman liver (domain or fragment)”, for which the stoichiometry N in [7] is 6.

As to “collagen IV NC1 domains of the NC1 hexamer from dogfish lens capsule, kidney and intestine (domain or fragment)”, the stoichiometry N in test [8] and in test [9] was 6 each time.

In the case of “collagen IV NC1 domains of the NC1 hexamer from green iguana heart and kidney (domain or fragment)”, the stoichiometry N in test [10] and in test [11] was 6 throughout.

In turn, “collagen IV NC1 domains of the NC1 hexamer from human kidney (domain or fragment)” returned a stoichiometry N in [12] of 6.

Turning to “collagen IV NC1 domains of the NC1 hexamer from leeches (domain or fragment)”, the stoichiometry N in [13] and in test [14] was 6 throughout.

The substance “collagen IV NC1 domains of the NC1 hexamer from market squid lens capsules (domain or fragment)” registered a stoichiometry N in test [15] of 6.

Take “collagen IV NC1 domains of the NC1 hexamer from mussel (domain or fragment)”: the stoichiometry N in test [16] and in test [17] was 6 throughout.

“collagen IV NC1 domains of the NC1 hexamer from placenta basement membrane (domain or fragment)” returned a stoichiometry N in [18] of 6.

For the substance “collagen IV NC1 domains of the NC1 hexamer from quick gloss snail (domain or fragment)”, the stoichiometry N in test [19] and in test [20] was 6 in each case.

For the substance “collagen IV NC1 domains of the NC1 hexamer from rooster liver, kidney and chorioallantoic membrane (domain or fragment)”, the stoichiometry N in test [21] was 6.

Consider “collagen IV NC1 domains of the NC1 hexamer from sea clam (domain or fragment)”, for which the stoichiometry N in test [22] and in test [23] was 6 throughout.

“collagen IV NC1 domains of the NC1 hexamer from sea squirt (domain or fragment)”: the stoichiometry N in test [24] came out at 6.

In turn, “collagen IV NC1 domains of the NC1 hexamer from snapping turtle muscle (domain or fragment)” came in with a stoichiometry N in test [25] of 6.

“collagen IV NC1 domains of the NC1 hexamer from starfish gonads (domain or fragment)”: the stoichiometry N in [26] amounted to 6.

“collagen IV NC1 domains of the NC1 hexamer from zebrafish material (domain or fragment)”: the stoichiometry N in test [27] and in test [28] was 6 each time.

Turning to “collagen IV NC1 domains of the α121 NC1 hexamer from lens capsule basement membrane (domain or fragment)”, the stoichiometry N in test [29] came out at 6.
